Measurements reported in US20040110930A1.
Values joined by “and” are separate entries in the source; they are usually repeats but may differ in a detail not shown here. Identical values can stand only once.

Tests used:
38C13 scFv protein [1] = test: ELISA, coated 38C13 scFv 5 ug/ml; 0.098 ng Fab; background subtracted
38C13 scFv protein [2] = test: ELISA, coated 38C13 scFv 5 ug/ml; 0.195 ng Fab; background subtracted
38C13 scFv protein [3] = test: ELISA, coated 38C13 scFv 5 ug/ml; 0.391 ng Fab; background subtracted
38C13 scFv protein [4] = test: ELISA, coated 38C13 scFv 5 ug/ml; 25.000 ng Fab; background subtracted
38C13 scFv protein [5] = test: ELISA, coated 38C13 scFv 5 ug/ml; 12.500 ng Fab; background subtracted
38C13 scFv protein [6] = test: ELISA, coated 38C13 scFv 5 ug/ml; 0.049 ng Fab; background subtracted
38C13 scFv protein [7] = test: ELISA, coated 38C13 scFv 5 ug/ml; 1.563 ng Fab; background subtracted
38C13 scFv protein [8] = test: ELISA, coated 38C13 scFv 5 ug/ml; 6.250 ng Fab; background subtracted
38C13 scFv protein [9] = test: ELISA, coated 38C13 scFv 5 ug/ml; 50.000 ng Fab; background subtracted
38C13 scFv protein [10] = test: ELISA, coated 38C13 scFv 5 ug/ml; 3.125 ng Fab; background subtracted
38C13 scFv protein [11] = test: ELISA, coated 38C13 scFv 5 ug/ml; 0.781 ng Fab; background subtracted
38C13 scFv protein [12] = test: ELISA, coated 38C13 scFv 5 ug/ml; 75.000 ng MAb; background subtracted
38C13 scFv protein [13] = test: ELISA, coated 38C13 scFv 5 ug/ml; 9.375 ng MAb; background subtracted
38C13 scFv protein [14] = test: ELISA, coated 38C13 scFv 5 ug/ml; 18.750 ng MAb; background subtracted
38C13 scFv protein [15] = test: ELISA, coated 38C13 scFv 5 ug/ml; 0.146 ng MAb; background subtracted
38C13 scFv protein [16] = test: ELISA, coated 38C13 scFv 5 ug/ml; 4.688 ng MAb; background subtracted
38C13 scFv protein [17] = test: ELISA, coated 38C13 scFv 5 ug/ml; 2.344 ng MAb; background subtracted
38C13 scFv protein [18] = test: ELISA, coated 38C13 scFv 5 ug/ml; 1.172 ng MAb; background subtracted
38C13 scFv protein [19] = test: ELISA, coated 38C13 scFv 5 ug/ml; 0.586 ng MAb; background subtracted
38C13 scFv protein [20] = test: ELISA, coated 38C13 scFv 5 ug/ml; 37.500 ng MAb; background subtracted
38C13 scFv protein [21] = test: ELISA, coated 38C13 scFv 5 ug/ml; 150.000 ng MAb; background subtracted
38C13 scFv protein [22] = test: ELISA, coated 38C13 scFv 5 ug/ml; 0.293 ng MAb; background subtracted

B1: control S1C5 Fab produced from mouse ascites MAb using the ImmunoPure Fab Kit (Fab, V domains shown)
VH: EVKLEQSGAELVKPGASVKISCKASGYTFTDHVIHWVKQRPEQGLEWIGFISPGNGDIRYNEKFKDKATLTADKSSSTAYMQLNSLTSEDSAVYFCKRSFYYYDDNYGDYWGQGTTLTVSS
VL: QIVLTQSPAIMSASLGERVTMTCTASSSVSSSYFHWYQQKPGSSPKLWIYTTSNLASGVPARFSGSGSGTSYSLTISSMEAEDAATYYCHQYHRSPLTFGAGTKLELKR
A450 (38C13 scFv protein [1]): 0.009 A450 and 0.018 A450 | A450 (38C13 scFv protein [2]): 0.03 A450 and 0.023 A450 | A450 (38C13 scFv protein [3]): 0.047 A450 and 0.05 A450 | A450 (38C13 scFv protein [4]): 0.498 A450 and 0.51 A450 | A450 (38C13 scFv protein [5]): 0.46 A450 and 0.465 A450 | A450 (38C13 scFv protein [6]): 0.008 A450 and 0.003 A450 | A450 (38C13 scFv protein [7]): 0.168 A450 and 0.171 A450 | A450 (38C13 scFv protein [8]): 0.346 A450 and 0.363 A450 | A450 (38C13 scFv protein [9]): 0.481 A450 and 0.516 A450 | A450 (38C13 scFv protein [10]): 0.273 A450 and 0.266 A450 | A450 (38C13 scFv protein [11]): 0.095 A450 and 0.094 A450

B2: pLSBC1798 produced S1C5 MAb (antibody, V domains shown)
VH: B1 VH
VL: B1 VL
A450 (38C13 scFv protein [12]): 0.514 A450 and 0.517 A450 | A450 (38C13 scFv protein [13]): 0.295 A450 and 0.307 A450 | A450 (38C13 scFv protein [14]): 0.39 A450 and 0.397 A450 | A450 (38C13 scFv protein [15]): 0.007 A450 and 0.004 A450 | A450 (38C13 scFv protein [16]): 0.198 A450 and 0.194 A450 | A450 (38C13 scFv protein [17]): 0.106 A450 and 0.113 A450 | A450 (38C13 scFv protein [18]): 0.061 A450 | A450 (38C13 scFv protein [19]): 0.03 A450 and 0.029 A450 | A450 (38C13 scFv protein [20]): 0.477 A450 and 0.482 A450 | A450 (38C13 scFv protein [21]): 0.521 A450 and 0.52 A450 | A450 (38C13 scFv protein [22]): 0.014 A450 and 0.015 A450

B3: pLSBC1792 produced S1C5 Fab (Fab, V domains shown)
VH: B1 VH
VL: B1 VL
A450 (38C13 scFv protein [1]): 0.025 A450 and 0.019 A450 | A450 (38C13 scFv protein [2]): 0.049 A450 and 0.041 A450 | A450 (38C13 scFv protein [3]): 0.09 A450 and 0.094 A450 | A450 (38C13 scFv protein [4]): 0.521 A450 and 0.519 A450 | A450 (38C13 scFv protein [5]): 0.487 A450 and 0.485 A450 | A450 (38C13 scFv protein [6]): 0.01 A450 and 0.011 A450 | A450 (38C13 scFv protein [7]): 0.263 A450 and 0.247 A450 | A450 (38C13 scFv protein [8]): 0.468 A450 and 0.449 A450 | A450 (38C13 scFv protein [9]): 0.524 A450 and 0.504 A450 | A450 (38C13 scFv protein [10]): 0.366 A450 and 0.35 A450 | A450 (38C13 scFv protein [11]): 0.168 A450 and 0.154 A450

B4: Control S1C5 MAb from mouse ascites fluid (antibody, V domains shown)
VH: B1 VH
VL: B1 VL
A450 (38C13 scFv protein [12]): 0.532 A450 and 0.515 A450 | A450 (38C13 scFv protein [13]): 0.39 A450 and 0.395 A450 | A450 (38C13 scFv protein [14]): 0.476 A450 and 0.429 A450 | A450 (38C13 scFv protein [15]): 0.012 A450 and 0.01 A450 | A450 (38C13 scFv protein [16]): 0.283 A450 and 0.284 A450 | A450 (38C13 scFv protein [17]): 0.18 A450 and 0.179 A450 | A450 (38C13 scFv protein [18]): 0.105 A450 and 0.096 A450 | A450 (38C13 scFv protein [19]): 0.053 A450 and 0.047 A450 | A450 (38C13 scFv protein [20]): 0.443 A450 and 0.497 A450 | A450 (38C13 scFv protein [21]): 0.517 A450 and 0.538 A450 | A450 (38C13 scFv protein [22]): 0.025 A450 and 0.023 A450
